Source: patent US20240287172A1 (SCIRHOM, published 2024)

Molecular target: T1, hiR2-FL-S545F-T7 (human, UniProt Q6PJF5 1-856)
T1 sequence: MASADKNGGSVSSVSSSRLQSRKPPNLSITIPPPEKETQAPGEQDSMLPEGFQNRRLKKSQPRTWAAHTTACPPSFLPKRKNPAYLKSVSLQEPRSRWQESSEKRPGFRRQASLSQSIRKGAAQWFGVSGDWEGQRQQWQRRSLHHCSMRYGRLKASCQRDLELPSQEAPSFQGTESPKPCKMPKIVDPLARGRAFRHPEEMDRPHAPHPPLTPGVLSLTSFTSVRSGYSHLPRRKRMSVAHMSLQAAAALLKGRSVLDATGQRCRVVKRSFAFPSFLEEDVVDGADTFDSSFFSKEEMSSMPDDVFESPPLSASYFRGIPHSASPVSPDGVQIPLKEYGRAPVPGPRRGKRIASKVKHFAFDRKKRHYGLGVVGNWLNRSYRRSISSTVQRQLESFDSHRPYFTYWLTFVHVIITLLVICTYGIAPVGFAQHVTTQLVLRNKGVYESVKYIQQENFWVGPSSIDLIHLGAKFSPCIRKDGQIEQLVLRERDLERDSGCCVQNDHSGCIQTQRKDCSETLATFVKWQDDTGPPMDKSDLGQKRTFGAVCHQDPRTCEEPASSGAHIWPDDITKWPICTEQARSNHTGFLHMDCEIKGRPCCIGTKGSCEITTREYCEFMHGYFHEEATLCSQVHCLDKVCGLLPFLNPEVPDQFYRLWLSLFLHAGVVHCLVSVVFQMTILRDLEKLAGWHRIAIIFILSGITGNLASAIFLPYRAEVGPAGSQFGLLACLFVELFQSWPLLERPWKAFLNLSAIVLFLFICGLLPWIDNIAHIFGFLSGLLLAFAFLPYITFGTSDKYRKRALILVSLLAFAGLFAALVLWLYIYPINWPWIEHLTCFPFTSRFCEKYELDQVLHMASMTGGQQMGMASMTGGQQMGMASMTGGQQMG
Assay: FACS, MEF-DKO cells, 3 µg/ml

B1: antibody 48 (antibody, V domains shown)
VH: QVQLQQSGTELVRPGTSVKVSCKASGYAFTNYLIEWVKQRPGQGLEWIGVINPGSGFTKYNEKFKGKATLTADKSSSTVYMHLSSLTSEDSAVYFCARGLYRAMDYWGQGTSVTVSS
VL: DIQMTQSPASQSASLGESVTITCLASQTIATWLAWYQQKPGKSPQLLIYGATTLADGVPSRFSGGGSGTKFSFKISSLQAEDFVSYYCQQLYSTPYTFGGGTKLEIK
notes: mouse IgG, kappa light chain; also called clone #48; purified antibody 48
  loss of binding vs wild type: ≥ 30%
